Source: doi:10.1101/2020.06.11.147496

Target: LuS-N71-SpyTag (Aquifex aeolicus lumazine synthase nanoparticle with a glycan at N71 and SpyTag at the N-terminus) (Aquifex aeolicus)

## SARS-CoV-2 spike-SpyCatcher (prefusion-stabilized SARS-CoV-2 spike trimer fused with a C-terminal SpyCatcher)
  percent of nanoparticle subunits conjugated: 91%
